± gives the uncertainty stated by the source.
Experiment: protein stability index of a GFP-peptide fusion (yeast GPS) (PSI 1-4); higher = more stable; sorted into four equal gates, so the index is relative within each strain
Procedure, shortened: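 Tiled yeast protein peptides of 17 residues were each joined downstream of GFP, on plasmids that also express Cherry. The pooled library was maintained in yeast, and mid-log cultures in leucine-free medium were sorted into four equal gates on the GFP/Cherry ratio. Plasmids from every gate were amplified by PCR and sequenced on Illumina, with barcodes linking reads to strains. The protein stability index of a peptide is its gate-number-weighted read frequency summed over the gates.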

| Sequence | protein stability index (doa10∆) | protein stability index (pdr5∆) | protein stability index (san1∆) | protein stability index (ubr1∆) |
| --- | --- | --- | --- | --- |
| TKPNVLNDPSLKIQFIL [SIN4] | 2.03 ± 0.043 | 2.36 ± 0.055 | 2.57 ± 0.049 | 2.538 ± 0.025 |
| TKRESLNARMFLKYYGA [SIR2] | 2.98 ± 0.11 | 2.9 ± 0.098 | 3.14 ± 0.11 | 2.6 ± 0.1 |
| TKSNRRVSHSDTNSSKP [SIR4] | 2.97 ± 0.077 | 3.19 ± 0.085 | 2.99 ± 0.077 | 3.25 ± 0.053 |
| TKTNVDNNSKAEASFTF [YLR335W/NUP2] | 3.05 ± 0.063 | 3.24 ± 0.067 | 3.07 ± 0.045 | 3.13 ± 0.046 |
| TKTPGPGGQAALRALAR [RPS14A] | 2.64 ± 0.042 | 2.27 ± 0.031 | 2.39 ± 0.042 | 2.3 ± 0.029 |
| TKTRKHRGHVSAGKGRI [RPL28] | 1.91 ± 0.06 | 2.21 ± 0.062 | 2.09 ± 0.12 | 2.4 ± 0.062 |
| TKTTGKCGSVTVRLIPA [RPS2] | 1.34 ± 0.11 | 1.7 ± 0.082 | 1.35 ± 0.17 | 1.71 ± 0.11 |
| TKVLQFAAKQRQELQMQ [SNF2] | 2.3 ± 0.12 | 2.71 ± 0.076 | 2.51 ± 0.059 | 2.31 ± 0.083 |
| TKYSAKYAQDGAGIERE [RPL3] | 3.04 ± 0.15 | 3.48 ± 0.22 | 3.24 ± 0.27 | 3.19 ± 0.15 |
| TLAERQQLAYDLSISAL [RPN9] | 2.39 ± 0.078 | 2.47 ± 0.13 | 2.77 ± 0.24 | 2.95 ± 0.093 |
| TLAITTVTNSKFRSSIL [RPN2] | 2.19 ± 0.046 | 2.3 ± 0.047 | 2.17 ± 0.054 | 2.52 ± 0.045 |
| TLAYDRGHRIRREFKQY [PRP8] | 2.82 ± 0.08 | 2.63 ± 0.058 | 2.35 ± 0.098 | 2.3 ± 0.052 |
| TLDYAERHGYIRGIVKQ [RPL2A] | 1.71 ± 0.06 | 1.71 ± 0.083 | 1.71 ± 0.079 | 1.8 ± 0.051 |
| TLEAKIGGLLSKVREEV [RPO31] | 3 ± 0.11 | 3.33 ± 0.11 | 3.6 ± 0.084 | 2.87 ± 0.084 |
| TLFSSIEPQVINYLALN [ECM29] | 2.31 ± 0.07 | 2.64 ± 0.096 | 2.29 ± 0.21 | 2.09 ± 0.082 |
| TLGKLSTSVGWKYEDVV [RPL16B] | 2.82 ± 0.062 | 2.42 ± 0.069 | 2.71 ± 0.11 | 2.81 ± 0.059 |
| TLHLVLRLRGGIIEPSL [RPL40A] | 2.99 ± 0.056 | 2.81 ± 0.049 | 2.58 ± 0.056 | 2.77 ± 0.044 |
| TLKKEWLKEYEDETLRR [YIL149C/MLP2] | 3.12 ± 0.21 | 3.2 ± 0.18 |  | 3.52 ± 0.12 |
| TLKLQDTRITPSKVSKI [PRE6] | 2.53 ± 0.05 | 2.85 ± 0.052 | 2.34 ± 0.1 | 2.01 ± 0.031 |
| TLKPTFSFTEPAQKDSS [YOR098C/NUP1] | 2.78 ± 0.059 | 3.05 ± 0.067 | 2.99 ± 0.065 | 2.53 ± 0.037 |

| Sequence | protein stability index (doa10∆) | protein stability index (pdr5∆) | protein stability index (san1∆) | protein stability index (ubr1∆) |
| --- | --- | --- | --- | --- |
| TLLKKANRDDVKGRENE [RPC82] |  | 3.5 ± 0.23 |  | 3.15 ± 0.17 |
| TLLREVVFTRLVQRCWQ [CSN12] | 1.4 ± 0.061 | 1.24 ± 0.048 | 1.39 ± 0.12 | 1.54 ± 0.055 |
| TLLYEQIIQRDKINKYS [SNF5] | 3.1 ± 0.08 | 3.35 ± 0.089 | 3.19 ± 0.059 | 2.27 ± 0.072 |
| TLNPKTGHLFLKIIHTS [PRP8] | 2.44 ± 0.047 | 1.91 ± 0.048 | 1.77 ± 0.076 | 1.84 ± 0.048 |
| TLNSRALSGLYYKNFHN [SNM1] | 2.17 ± 0.052 | 2.38 ± 0.06 | 1.88 ± 0.063 | 2 ± 0.042 |
| TLPGDDELDQEILNLST [RPT5] | 3.32 ± 0.12 | 3.27 ± 0.12 | 3.58 ± 0.072 | 3.45 ± 0.098 |
| TLPQPRLNKLNSNGIAM [SMD1] | 2.3 ± 0.11 | 2.27 ± 0.069 | 1.72 ± 0.094 | 2.15 ± 0.053 |
| TLQLYMVHREFLKLANG [RGR1] | 1.49 ± 0.047 | 1.63 ± 0.05 | 2.07 ± 0.058 | 2.28 ± 0.049 |
| TLQTISFLGYLRYVKQI [ISW2] | 2.24 ± 0.044 | 1.71 ± 0.049 | 1.5 ± 0.094 | 1.96 ± 0.048 |
| TLRPRQYATVSKTHKTV [RPL34A] | 2 ± 0.16 | 2.12 ± 0.093 |  |  |
| TLSYDDISAAIVHSSDG [DLS1] | 2.65 ± 0.046 | 2.82 ± 0.053 | 2.72 ± 0.04 | 2.66 ± 0.046 |
| TMETKTLPEKKQFDSIF [SIR4] | 2.44 ± 0.047 | 2.69 ± 0.057 | 2.84 ± 0.047 | 2.65 ± 0.043 |
| TMGEETAKKDMSSTTPK [SNF12] | 2.58 ± 0.07 | 3.03 ± 0.076 | 3.31 ± 0.1 | 3.27 ± 0.079 |
| TMHTKTYAAEIAHNISA [RPL32] | 2.34 ± 0.042 | 2.42 ± 0.04 | 2.21 ± 0.051 | 2.33 ± 0.036 |
| TMLENITLRGVENIERV [RPO21] | 3.23 ± 0.12 | 2.86 ± 0.1 | 2.82 ± 0.12 | 2.69 ± 0.058 |
| TMVIQDEDWSVRIDKAL [ECM29] | 2.84 ± 0.19 | 3.21 ± 0.18 |  |  |
| TNEEVRNMAEEFEYDDE [CYT1] | 2.92 ± 0.14 | 2.3 ± 0.077 | 2.49 ± 0.098 | 2.2 ± 0.041 |
| TNKISPKDFSPNFTGID [SSN2] | 2.76 ± 0.13 | 1.84 ± 0.11 | 2.9 ± 0.12 | 2.91 ± 0.057 |
| TNNKKLLEKANNQQRLL [SMC3] | 2.01 ± 0.11 | 1.94 ± 0.091 | 2.58 ± 0.18 | 1.49 ± 0.063 |
| TNVSKQNDFLFSVGESL [ECM29] | 2.56 ± 0.055 | 2.92 ± 0.071 | 2.94 ± 0.1 | 2.46 ± 0.053 |
